# Results published in patent US10087231B2, “Substitution mutant receptors and their use in an ecdysone receptor-based inducible gene expression system” (Intrexon Corporation, priority 2001, dated 2018).
# “Also recorded” adds a separate entry of the source.
# Tests used:
# [1] = system: GAL4/CfEcR-DEF and pFRLuc in NIH3T3 cells; type: cell-based, mouse; conditions: 0.04-25 μM GS™-E (FIG. 4)
# Protocol: (§1) The resulting PCR nucleic acid products encoding the mutant RXR ligand binding domains were then each fused to a VP16 transactivation domain as described in Examples 1.3 and 1.6 above. The VP16/mutant RXR receptor constructs were tested for activity by transfecting them into NIH3T3 cells along with GAL4/CfEcR-DEF and pFRLuc in the presence of non-steroid ligand.
# (§2) DNAs corresponding to the various switch constructs outlined in Example 1.1-1.6 were transfected into mouse NIH3T3 cells (ATCC) as follows. Standard methods for culture and maintenance of the cells were followed. […] Superfect™ (Qiagen Inc.) was used as the transfection reagent. For 12-well plates, 4 μl of Superfect™ was mixed with 100 μl of growth medium. One μg of reporter construct and 0.25 μg of each receptor construct of the receptor pair to be analyzed were added to the transfection mix. […] The cells were harvested and reporter activity was assayed.
# Cells were harvested 40 hours after adding ligand. […] Twenty μl of lysate were assayed. […]
# The cells were harvested and reporter activity was assayed as described above.
# As discussed above, a CfEcR-based gene regulation system is ligand dependent when RXRs are used as the heterodimeric partner and ligand independent when USPs are used as the heterodimeric partner. However, reporter gene expression is induced at very high levels when CfUSP is used as the heterodimeric partner. To improve RXR as heterodimeric partner, Applicants have aligned the polypeptide sequences of several USP and RXR ligand binding domains (domains EF) and identified amino acid residues that are different between these two nuclear receptor family members. In particular, Applicants identified residues that are conserved in all USPs but are different in RXRs and mutated these residues in HsRXRβ. […] The cells were harvested and reporter activity was assayed as described above.
# [2] = system: GAL4/CfEcR-DEF and pFRLuc in NIH3T3 cells; test: Reporter gene transactivation of VP16/mutant MmRXRα-EF with GAL4/CfEcR-DEF and pFRLuc, GS™-E ligand; type: cell-based, mouse; conditions: for induction levels / sensitivity to non-steroid ligand: NIH3T3 cells, 0.2, 1 and 10 μM GS™-E; for background levels in the absence of ligand: NIH3T3 cells, VP16/MmRXRα-EF mutant + GAL4/CfEcR-DEF + pFRLuc, no ligand (DMSO)
# Protocol: as §1, §2
# Cells were harvested 40 hours after adding ligand. […] Twenty μl of lysate were assayed.
# DNAs corresponding to the various switch constructs outlined in Example 1, specifically switches 1.1-1.4, were transfected into mouse NIH3T3 cells (ATCC) as follows. […] Two μl of Superfect™ was mixed with 100 μl of growth medium and 50 ng of GAL4/CfEcR-DEF cassette, 50 ng of: VP16/LmUSP-EF, VP16/wild-typeMmRXRα-EF, VP16/MmRXRα-LmUSPchimera-EF, or VP16/mutantMmRXRα-EF, and 200 ng of pFRLuc were added to the transfection mix. […] The cells were harvested and reporter activity was assayed as described above.
Molecule,transactivation activity [1],induction levels [2],sensitivity to non-steroid ligand [2],background levels in the absence of ligand [2],"performance compared with chimeric vertebrate RXR/invertebrate RXR ([2]; NIH3T3 cells, 0.2, 1 and 10 μM GS™-E (FIG. 2))"
"M431L: HsRXRβ ligand binding domain substitution mutant (SEQ ID NO: 2) (protein, listed as Homo sapiens) MSWAARPPFLPQRHAAGQCGPVGVRKEMHCGVASRWRRRRPWLDPAAAAAAAVAGGEQQTPEPEPGEAGRDGMGDSGRDSRSPDSSSPNPLPQGVPPPSPPGPPLPPSTAPSLGGSGAPPPPPMPPPPLGSPFPVISSSMGSPGLPPPAPPGFSGPVSSPQINSTVSLPGGGSGPPEDVKPPVLGVRGLHCPPPPGGPGAGKRLCAICGDRSSGKHYGVYSCEGCKGFFKRTIRKDLTYSCRDNKDCTVDKRQRNRCQYCRYQKCLATGMKREAVQEERQRGKDKDGDGEGAGGAPEEMPVDRILEAELAVEQKSDQGVEGPGGTGGSGSSPNDPVTNICQAADKQLFTLVEWAKRIPHFSSLPLDDQVILLRAGWNELLIASFSHRSIDVRDGILLATGLHVHRNSAHSAGVGAIFDRVLTELVSKMRDLRMDKTELGCLRAIILFNPDAKGLSNPSEVEVLREKVYASLETYCKQKYPEQQGRFAKLLLRLPALRSIGLKCLEHLFFFKLIGDTPIDTFLMEMLEAPHQLA",essentially eliminated transactivation activity,–,–,–,–
"E401D: MmRXRα ligand binding domain substitution mutant, glutamic acid to aspartic acid at 401 of SEQ ID NO: 1, fused to VP16 (protein) MGPKKKRKVAPPTDVSLGDELHLDGEDVAMAHADALDDFDLDMLGDGDSPGPGFTPHDSAPYGALDMADFEFEQMFTDALGIDEYGGEFPANEDMPVEKILEAELAVEPKTETYVEANMGLNPSSPNDPVTNICQAADKQLFTLVEWAKRIPHFSELPLDDQVILLRAGWNELLIASFSHRSIAVKDGILLATGLHVHRNSAHSAGVGAIFDRVLTELVSKMRDMQMDKTELGCLRAIVLFNPDSKGLSNPAEVEALREKVYASLDAYCKHKYPEQPGRFAKLLLRLPALRSIGLKCLEHLFFFKLIGDTPIDTFLMEMLEAPHQAT",–,higher induction levels,increased sensitivity to a non-steroid ligand,higher background,–
E401D/G429S: double substitution mutant MmRXRα-EF with E401D and G429S; three independent clones analyzed (protein) MGPKKKRKVAPPTDVSLGDELHLDGEDVAMAHADALDDFDLDMLGDGDSPGPGFTPHDSAPYGALDMADFEFEQMFTDALGIDEYGGEFPANEDMPVEKILEAELAVEPKTETYVEANMGLNPSSPNDPVTNICQAADKQLFTLVEWAKRIPHFSELPLDDQVILLRAGWNELLIASFSHRSIAVKDGILLATGLHVHRNSAHSAGVGAIFDRVLTELVSKMRDMQMDKTELGCLRAIVLFNPDSKGLSNPAEVEALREKVYASLDAYCKHKYPEQPGRFAKLLLRLPALRSISLKCLEHLFFFKLIGDTPIDTFLMEMLEAPHQAT,–,increased induction levels,increased induction levels and ligand sensitivity,low background levels,work as well as the chimeric RXR
"G429S: MmRXRα ligand binding domain substitution mutant, glycine to serine at 429 of SEQ ID NO: 1, fused to VP16 (protein) MGPKKKRKVAPPTDVSLGDELHLDGEDVAMAHADALDDFDLDMLGDGDSPGPGFTPHDSAPYGALDMADFEFEQMFTDALGIDEYGGEFPANEDMPVEKILEAELAVEPKTETYVEANMGLNPSSPNDPVTNICQAADKQLFTLVEWAKRIPHFSELPLDDQVILLRAGWNELLIASFSHRSIAVKDGILLATGLHVHRNSAHSAGVGAIFDRVLTELVSKMRDMQMDKTELGCLRAIVLFNPDSKGLSNPAEVEALREKVYASLEAYCKHKYPEQPGRFAKLLLRLPALRSISLKCLEHLFFFKLIGDTPIDTFLMEMLEAPHQAT",–,–,increased sensitivity to a non-steroid ligand; also recorded: increased sensitivity to ligand,less background,–
